US8604172B2, “Humanized antibody compositions and methods for binding lysophosphatidic acid” (Lpath, Inc., priority 2009, dated 2013)
Marks after values point to notes of the source that are not given here.

Assays:
[1] = BIAcore 3000 kinetics, LPA immobilized on sensor chip; type: binding
Procedure: The kinetics parameters ka (association rate constant), kd (disassociation rate constant) and KD ([…] equilibrium constant) were determined for the 6 lead candidates using the BIAcore 3000 Biosensor machine. In this study, LPA was immobilized on the sensor surface and the anti-LPA mAbs were flowed in solution across the surface.
LPA was immobilized to the sensor chip at densities ranging 150 resonance units. Dilutions of each mAb were passed over the immobilized LPA and kinetic constants were obtained by nonlinear regression of association/dissociation phases. Errors are given as the standard deviation using at least three determinations in duplicate runs. Apparent affinities were determined by […].
ka=Association rate constant in M^−1s^−1kd=Dissociation rate constant in s^−1

[2] = Competition ELISA specificity, competitor C1P; type: binding; details: maximum inhibition, n = 3
Procedure: The specificity of the anti-LPA mAbs was assessed for their binding to LPA related biolipids such as distearoyl-phosphatidic acid, lysophosphatidylcholine, S1P, ceramide and ceramide-1-phosphate.

Solubility = type: physicochemical; details: 6.6 mM phosphate, 154 mM sodium chloride, pH 7.4
[3] = test system: IL-6 release in SKOV3 cells; assay: LPA-induced IL-6 release in SKOV3 cells; type: cell-based, human; details: Lpathomab 600 μg/mL; 1 μM 18:1 LPA; n = 3
Procedure: Anti-LPA antibodies inhibit the LPA-dependant release of human CXCL8/IL-8 in conditioned media of SKOV3 ovarian cells. SKOV3 cells (Lot No 4255558, passage 14) were harvested with 2 ml of 1× Trypsin EDTA (Mediatech Inc, Cat. No 25-053-CV) and resuspended in 8 ml of complete medium (10% FBS, Mediatech Inc. Cat. no 35-011-CV). The cells were centrifuged for 5 min ([…]) and re-suspended in 5 ml of complete medium. Cells were counted in duplicate with 0.4% Trypan blue (10 ul cells plus 90 ul Trypan blue, Invitrogen, Cat. No 15250-061) using a hemocytometer. In a 96-well plate, 1×10^5 cells per well were seeded (final volume 100 ul/well). The cells were allowed to attach and form a confluent monolayer by incubating overnight at 37° C. On the following day, cells were gently washed two times with minimum media (1 mg/ml BSA in McCoy's medium with L-glutamine, Mediatech, Cat. No 10-050-CV). […] The CXCL8/IL-8 levels in each supernatant were measured using the Quantikine human CXCL8/IL-8 ELISA kit according to vendor instructions (R&D Systems, Minneapolis Minn., Cat. No D8000C). The IL-6 levels were measured by ELISA using the Quantikine human IL-6 immunoassay kit (R&D systems, Cat. No. D6050). Data were analyzed by one-way ANOVA followed by Bonferroni's post test and expressed as human IL-8 or human IL-6 fold increase.

[4] = Surface plasmon resonance, 12:0 LPA on GLC sensor chip; type: binding
Procedure: All binding data were collected on a ProteOn optical biosensor (BioRad, Hercules Calif.). 12:0 LPA-thiol and 18:0 LPA-thiol were coupled to a maleimide modified GLC sensor chip (Cat. No 176-5011). First, the GLC chip was activated with an equal mixture of sulfo-NHS/EDC for seven minutes followed by a 7 minute blocking step with ethyldiamine. Next sulfo-MBS (Pierce Co., cat #22312) was passed over the surfaces at a concentration of 0.5 mM in HBS running buffer (10 mM HEPES, 150 mM NaCl, 0.005% tween-20, pH 7.4). LPA-thiol was diluted into the HBS running buffer to a concentration of 10, 1 and 0.1 uM and injected for 7 minutes producing 3 different density LPA surfaces (˜100, ˜300 and ˜1400 RU). Next, binding data for the humanized antibodies was collected using a 3-fold dilution series starting with 25 nM as the highest concentration (original stocks were each diluted 1 to 100). Surfaces were regenerated with a 10 second pulse of 100 mM HCl. All data were collected at 25° C. Controls were processed using a reference surface as well as blank injections. […] In order to extract estimates of the binding constants, data from the varying antibody concentrations were globally fit using 1-site and 2-site models. This produced estimates of the affinity for the bivalent (site 1) and monovalent site (site 2).

[5] = Pharmacokinetics of Lpathomab in mice; type: in vivo
Procedure: Preliminary PK studies were conducted with Lpathomab. For IV dosed groups, mice were injected with a single 30 mg/kg dose and sacrificed at time points up to 15 days. Antibody was also given via i.p. administration and animals were sacrificed during the first 24 hrs to compare levels of mAb in the blood over this period of time for different routes of delivery. Pharmacokinetic parameters were assessed by WinNonlin. Three mice were sacrificed at each time point and plasma samples were collected and analyzed for mAb levels by ELISA.

IL-8 in Caki-1 cells = assay: LPA-induced IL-8 production in Caki-1 cells; type: cell-based, human; details: 18:1 LPA (0.2 mM), 0.1-30 μg/mL mAb, 24 h
Procedure: Three anti-LPA mAbs (B3, B7 and B58) were tested for their abilities to reduce in vitro IL-8 production compared to a non-specific antibody (NS). Caki-1 cells were seeded in 96 well plates and grown to confluency. After overnight serum starvation, cells were treated with 18:1 LPA (0.2 mM) with or without anti-LPA mAb B3, B7, B58 or NS (Non-Specific). After 24 h, cultured supernatants of renal cancer cells (Caki-1), treated with or without LPA and in presence of increasing concentrations of the anti-LPA mAbs B3, B7 and B58, were collected and analyzed for IL-8 levels using a commercially available ELISA kit (Human Quantikine Kit, R&D Systems, Minneapolis, Minn.). […] The inhibition of IL-8 release by the anti-LPA mAbs was also observed in other cancerous cell lines such as the pancreatic cell line Panc-1.

[6] = test system: human colon cancer cell line (COLO-205); assay: Xenograft CAM assay; type: in vivo

Kd ([1]; apparent affinity): 1.6 ± 0.1 pM
kd ([1]; dissociation rate constant): 1e-06 s⁻¹
Kd ([4]; first value (site 1, bivalent), read-out: KD (C12)): 27 pM
Kd ([4]; value in parentheses (site 2, monovalent), read-out: KD (C12), value in parentheses): 7 pM
B1: LT3000: Murine anti-LPA monoclonal antibody clone B7, IgG1k, renamed Lpathomab, also known as LT3000; hybridoma 504B7.1, ATCC PTA-8420 (antibody, V domains shown)
VH: QVQLQQSGAELVRPGTSVKVSCKASGYGFINYLIEWIKQRPGQGLEWIGLINPGSDYTNYNENFKGKATLTADKSSSTAYMHLSSLTSEDSAVYFCARRFGYYGSGNYFDYWGQGTTLTVSS
VL: DVVMTQTPLSLPVSLGDQASISCTSGQSLVHINGNTYLHWYLQKPGQSPKLLIYKVSNLFSGVPDRFSGSGSGTDFTLKISRVEAEDLGVYFCSQSTHFPFTFGTGTKLEIK
ka (M^−1 s^−1) ([1]; association rate constant, ± standard deviation): 6.2 ± 0.1 × 10^5 M^−1 s^−1
MI (%), C1P [2]: 1.0%
Solubility (Solubility): >40 mg/mL in 6.6 mM phosphate, 154 mM sodium
IL-6 Release, % Inhibition (over LPA taken as 100) [3]: 23* %
time until fully distributed to the blood ([5]; i.p. administration): 6 to 12 h
half-life ([5]; i.v. administration, listed as murine antibody): ~96 h
IL-8 expression (IL-8 in Caki-1 cells): significantly reduced in a dose-dependent manner
tumor size [6]: significantly reduced
